Measurements taken from US8221990B2, “Screening GPR12 receptor for substances having Nesfatin-1-like action, or which regulate Nesfatin-1 action” (Teijin Pharma Limited, priority 2007, dated 2012).

T1: mouse GPR12 (Mus musculus, UniProt P35412)
T1 construct: expressed in transfected cells
T1 sequence (P35412 1-334): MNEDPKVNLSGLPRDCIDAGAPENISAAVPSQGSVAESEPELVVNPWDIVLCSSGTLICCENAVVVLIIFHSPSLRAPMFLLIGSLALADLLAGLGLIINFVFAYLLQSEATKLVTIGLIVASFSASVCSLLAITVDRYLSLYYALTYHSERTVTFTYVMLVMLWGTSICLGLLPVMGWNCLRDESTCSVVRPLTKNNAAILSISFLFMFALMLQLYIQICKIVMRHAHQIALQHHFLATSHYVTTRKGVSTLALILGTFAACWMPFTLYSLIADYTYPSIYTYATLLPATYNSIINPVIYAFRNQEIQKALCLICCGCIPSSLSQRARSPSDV

T2: GPR12 (Mus musculus, UniProt P35412)
T2 construct: in which GPR12 was endogenously expressed; endogenous in cells; host or cells: NB41A3 cells (ATCC-CCL147), mouse brain neuroblastoma
T2 sequence (P35412 1-334): T1 sequence (P35412 1-334)

T3: mGPR12 (Mus musculus, UniProt P35412)
T3 sequence (P35412 1-334): T1 sequence (P35412 1-334)

B1: mouse Nesfatin-1: recombinant mouse Nesfatin-1 (82 amino acids) expressed in Escherichia coli as a GST-His fusion protein and cleaved by thrombin (protein)
chain: VPIDVDKTKVHNTEPVENARIEPPDTGLYYDEYLKQVIEVLETDPHFREKLQKADIEEIRSGRLSQELDLVSHKVRTRLDEL

Tests used:
mouse GPR12 = target: T1, mouse GPR12; assay: cAMP production in CHO-K1-cell stable expression system (CHO-K1-GPR12); assay type: cell-based; details: CHO-K1-GPR12, peptide 10^-9 M, Forskolin 10^-5 M, 30 minutes
Protocol: The preparation of cells stably expressing GPR12 was conducted by a conventional method, and hereinafter described briefly. A vector (pcDNA3.1-GPR12) in which a gene (cDNA) encoding mouse GPR12 (SEQ ID NO: 8) was inserted at the downstream of a CMV promoter of pcDNA3.1 (TM) (Invitrogen Corporation) was prepared, 10 μg of the vector was mixed with 250 μL of medium OPTI-MEM™ (Invitrogen Corporation), and 10 μg of Lipofectamine™ 2000 Reagent (Invitrogen Corporation) was mixed with 250 μL of medium OPTI-MEM™, 5 minutes later both mixtures were mixed, and the resultant mixture was left over at room temperature for 20 minutes to prepare a transfection reagent. Chinese hamster ovary cells (CHO-K1) [ATCC Cat. No. CCl-61] plated onto a 6-well plate at 1.5×10^6 cells/well on the previous day in advance were washed with medium OPTI-MEM™ once, and the above-mentioned transfection reagent (vector and Lipofectamine™ 2000 Reagent) was added to the cells dropwise to perform transfection. The resultant transfected cells were incubated at 37° C. for 5 hours in a CO2 incubator, and then the medium was replaced by Ham's F12 medium. Further, the next day the medium was exchanged with Ham's F12 medium containing 100 μg/mL of Geneticin® (Invitrogen Corporation), and furthermore the next day the medium was exchanged with the same medium containing 200 μg/mL of Geneticin®, and the following day the medium was exchanged with the same medium containing 700 μg/mL of Geneticin®, and after that, culturing was continued under the conditions of 37° C. and 5% CO2 in a medium containing Geneticin® at the same concentration. […]
The measured intracellular cAMP level was evaluated in terms of a ratio (Fold) of each intracellular cAMP level with respect to the mean of the intracellular cAMP level in the (−) group that is set as unity, in which CHO-K1-GPR12 cells were cultured in the medium containing no peptide.

GPR12 = target: T2, GPR12; assay: Expression of a CRE-reporter gene (pCRE-Luc luciferase) in NB41A3 cells expressing GPR12 endogenously; assay type: cell-based; details: NB41A3 cells transfected with pCRE-Luc, 10^-12 M to 10^-8 M, 16 hours
Protocol: NB41A3 cells (ATCC-CCL147), a cell strain derived from mouse brain neuroblastoma, in which GPR12 was endogenously expressed were used. The confluent NB41A3 cells were recovered in a 10-cm dish, plated onto 10 cm-dishes after dividing the cell colony in four quarters, and cultured for one day in Ham's F12K medium. The cells were transected with 5 μg of the reporter plasmid pCRE-Luc (Stratagene Corporation, Catalog No. 219074) in which TATA-BOX and luciferase were incorporated into downstream of CRE by a calcium phosphate method. The cells were washed with Ham's F12K medium 16 hours after the transfection. Ham's F12K medium containing no test substance (Vehicle), Ham's F12K medium containing 10^−10 M of Nesfatin-1 M30 (Mid-Segment: SEQ ID NO: 11), Ham's F12K medium containing 10^−10 M of a modified peptide M30_Ag-A (SEQ ID NO: 50) (M30_Ag-A), and Ham's F12K medium containing 10^−10 M of a modified peptide M30_MSH-A (SEQ ID NO: 51) […] were added to the cells, and the resultant mediums were cultured under the conditions of 37° C. and 5% CO2 for 16 hours. After the culturing, the cells were washed twice with phosphate-buffered saline (PBS), lysed with 4 mL of lysis buffer (an aqueous solution containing 25 mM of glycylglicine (pH 7.8), 15 mM of magnesium sulfate, 4 mM of glycol ether diaminetetraacetic acid (EGTA), 1 mM of dithiothreitol (DTT), and 1% (volume/volume) of Triton X-100). […] After adding 200 μL of 0.2 mM of d-luciferin to the diluted cell lysate, the luminescence was measured for 10 seconds by a luminometer, and the amount of luminescence (units) was determined. Further, the amount of protein in each cell lysate was measured by BCA™ Protein Assay Kit-Reducing Agent Compatible (Pearce, Catalog No. 23250), and the value obtained by dividing the amount of luminescence (units) by the amount of protein (μg) in a sample was determined as a luciferase activity. […] The cells were cultured for 16 hours, and then the level of luciferase activity was also determined.

[1] = Amount of food intake in a mouse after intraperitoneal administration; assay type: in vivo; details: C57BL/6J male mouse, 0.25 nmol per gram of body weight, 0 to 3 hours
Protocol: A 7-week-old C57BL/6J strain male mouse (CLEA Japan, Inc.) was used as an experimental animal. After purchasing the mouse, the mouse was raised at 22° C. in cycles of the 12-hour light period from 6 a.m. to 6 p.m. and the 12-hour dark period from 6 p.m. to 6 a.m. on the next morning with free access to pelleted feed (CLEA Japan, Inc., CE-2).
A 5 nmol aliquot of Nesfatin-1M30 (Mid-segment, SEQ ID NO: 11), M30_Ag-A (SEQ ID NO: 50), or M30_MSH-A (SEQ ID NO: 51) was dissolved in each 100 μL of saline, and each of the resultant solutions was administered intraperitoneally to a C57BL/6J mouse at a dose of 0.25 nmol per gram of body weight of the mouse. In the control group, only saline (Vehicle) was administered. Each mouse (5 mice in each group) was intraperitoneally given a single injection of a sample using a tuberculin syringe with 26 G needle, immediately before the dark period (6 p.m.).
Each mouse administered was placed in an individual cage, and the amount of food intake was determined by measuring the decreased amount of the pelleted feed during the period from 0 to 3 hours after the administration of a test substance. In the mouse administered with each test sample, the amount of food intake during 3 hours after the administration (g/3 h) is shown in FIG. 6.

mGPR12 = target: T3, mGPR12; assay: cAMP production in HeLa-cell transient expression system; assay type: cell-based; design: expressed in transfected cells; host or cells: HeLa cells (transient, lipofection); details: mGPR12-transiently expressing HeLa cells, ligand 10^-6 M
Protocol: A GPCR expression vector prepared in Example 4 was introduced into HeLa cells by lipofection and transiently expressed.
HeLa cells were peeled off using trypsin EDTA and recovered, and plated onto a 6-well plate with 7×10^5 cells/2 mL/well to perform overnight culture using a CO2 incubator. The next day, a plasmid solution was prepared by adding 4 μg of plasmid into 250 μL of a serum-free Opti-MEM medium. On the other hand, a Lipofectamine 2000 solution was prepared by adding 10 μL of Lipofectamine 2000 (Invitrogen Corporation) into 250 μL of the serum-free Opti-MEM medium. These solutions were incubated at room temperature for 5 minutes, and the Lipofectamine 2000 solution was added bit by bit into the plasmid solution. The resultant mixture was incubated at room temperature for 20 minutes to prepare a solution for lipofection. […]
The 5× Ligand solution was added at 20 μL/well so that the final concentration may become 10^−6 M, and the plate was incubated in a CO2 incubator for 30 minutes. […] Further, in order to lyse the cells completely, the cells were frozen once at −20° C. and lysed again, and then the intracellular cAMP concentration was measured using cAMP-Screen System (Applied Biosystems, T1500).

Molecule | intracellular cAMP level compared with the group (-) cultured in medium containing no peptide (mouse GPR12) | concentration-dependent enhancement of the luciferase activity (GPR12) | amount of food intake during 3 hours after the administration compared with control group (Vehicle) [1] | cAMP production (mGPR12; with Forskolin addition (2 μM)) | cAMP production (mGPR12; without Forskolin addition)
M30_Ag-A: human Nesfatin-1M30 with the 11th (Leu) and 13th to 17th residues from the N-terminus substituted with alanine, SEQ ID NO: 50 (PDTGLYYDEYAKAAAAALETDKHFREKLQK; Synthetic M30_Ag-A peptide) | hardly elevated | not found | no difference |  | 
M30_MSH-A: human Nesfatin-1M30 with the 22nd to 25th residues from the N-terminus substituted with alanine, SEQ ID NO: 51 (PDTGLYYDEYLKQVIDVLETDAAAAEKLQK; Synthetic M30_MSH-A peptide) | about 10 fold | observed | significant decrease of the food intake |  | 
B1 |  |  |  | increase in cAMP production was confirmed | increase in cAMP production was confirmed
